Data from PMC3459099.

Target: ERp57-Cys57Ser–Cys406Ser double mutant (mutated ERp57) (human) (UniProt P30101)
Experiment: ELISA

Work on “recombinant N-terminal region of β-DG, β-DG(654–750), biotinylated (domain or fragment)” yielded a Kd of 10 µM.
